In one data set the target is T1, RsHMT (Raphanus sativus, UniProt C6L2E7).
T1 sequence (C6L2E7 1-226): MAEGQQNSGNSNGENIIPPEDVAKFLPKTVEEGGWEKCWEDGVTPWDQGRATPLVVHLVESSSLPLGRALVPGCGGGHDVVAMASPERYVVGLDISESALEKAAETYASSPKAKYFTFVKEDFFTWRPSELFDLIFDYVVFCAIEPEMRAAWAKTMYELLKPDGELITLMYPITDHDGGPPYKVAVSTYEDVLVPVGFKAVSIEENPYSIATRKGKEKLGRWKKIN
The experiment in a line: alkylation of SAH, specific activity. The format is biochemical. As to conditions: co-substrate SAH.

Data set [1] deals with T2, AtHMT (Arabidopsis thaliana, UniProt Q0WP12).
T2 sequence (Q0WP12 1-227): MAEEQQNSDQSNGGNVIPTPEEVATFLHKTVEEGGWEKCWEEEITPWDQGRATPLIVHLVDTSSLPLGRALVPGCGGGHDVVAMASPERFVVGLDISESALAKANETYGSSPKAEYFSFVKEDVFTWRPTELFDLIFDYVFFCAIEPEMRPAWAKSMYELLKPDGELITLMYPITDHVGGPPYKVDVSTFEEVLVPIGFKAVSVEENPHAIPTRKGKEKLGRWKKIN
The experiment in a line: kinetic analysis of methyl transfer to SAH. It is filed as biochemical. As to conditions: read-out: Methyltransferase activity / K M, MeI; co-substrate SAH.

The target in data set [2] is T3, AtHMT (Arabidopsis thaliana, UniProt Q0WP12, V140T).
T3 sequence (Q0WP12 1-227 V140T): T2 sequence (Q0WP12 1-227) with V140T
The data set is described as follows: kinetic analysis of methyl transfer to SAH. It is filed as biochemical. Particulars: read-out: Methyltransferase activity / K M, MeI; co-substrate SAH.

Substrate in data set [3]: CCI
The experiment in a line: kinetic analysis of ethyl transfer to SAH. The format is biochemical, Arabidopsis thaliana. Particulars: co-substrate SAH.

Substitutions are numbered along the chain they refer to. Names and notes keep the numbering of the source.

What is called kcat is the maximal rate divided by the concentration of active sites. As usually defined, the kcat/Km is the second-order rate constant that governs catalysis at low substrate concentration.

In the case of `CI` [methyl iodide], at RsHMT, the “alkylation of SAH, specific activity” value was “All three HMTs were active using methyl iodide”. The results for the Km on AtHMT [1] and on AtHMT [2] were 1.43 ± 0.19 mM and 4.7 ± 0.76 mM, respectively.

Consider `CCI` [ethyl iodide], for which the “alkylation of SAH, specific activity” value at RsHMT is “all three enzymes had promiscuous activity against ethyl iodide”.

B1: AtHMT (Arabidopsis thaliana) (protein)
chain: T2 sequence (Q0WP12 1-227)
Take B1: in data set [3], the Km was found to be 9.36 ± 1.66 mM, the kcat amounted to 0.006 ± 0.0005 s⁻¹ and the kcat/Km amounted to 0.633 M⁻¹ s⁻¹.

B2: AtHMT (Arabidopsis thaliana; V140T) (protein)
chain: T2 sequence (Q0WP12 1-227) with V140T
As for B2, in data set [3], the Km was determined as 11.14 ± 1.52 mM, the kcat amounted to 0.0397 ± 0.00267 s⁻¹ and the kcat/Km was 3.57 M⁻¹ s⁻¹.

(Values after PMC7839550 (Angewandte Chemie (International Ed. in English), 2020).)
